Experimental data as given in patent US20230287598A1 (TAURUS BIOSCIENCES, published 2023).

T1: CXCR1 (UniProt P25024 1-350, limits assumed)
T1 construct: whole, on cells; DiscoveRx PathHunter cell line; any reporter tag on the receptor is not described; also called CXCR1 receptor; CXCR1-U2OS
T1 sequence (looked up): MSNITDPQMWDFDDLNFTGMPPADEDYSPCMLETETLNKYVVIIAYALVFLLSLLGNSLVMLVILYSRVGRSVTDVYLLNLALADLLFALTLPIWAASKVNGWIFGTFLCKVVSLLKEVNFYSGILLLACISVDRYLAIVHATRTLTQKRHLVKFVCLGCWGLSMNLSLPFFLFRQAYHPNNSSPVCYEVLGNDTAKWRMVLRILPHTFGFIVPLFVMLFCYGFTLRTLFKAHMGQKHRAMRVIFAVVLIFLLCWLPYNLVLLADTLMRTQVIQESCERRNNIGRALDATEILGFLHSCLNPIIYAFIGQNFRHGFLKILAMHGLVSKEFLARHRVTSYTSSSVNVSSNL

B1: VH4-34+CDR3-IL8_CDR1-Cow_CDR2-E50S_Q5RQ6E / VL1-51 S2A, T5N, P8S, A12G, A13S, P14L, K46R, L47T, D51G, N52D, N53T, K54S, P56A IgG (antibody)
VH: QVQLREWGAGLLKPSETLSLTCTASGFSLSDKAVGWIRQPPGKGLEWIGSINHSGSTNYNPSLKSRVTISVDTSKNQFSLKLSSVTAADTAVYYCTSVHQETKKYQSPRSAKELRCQCIKTYSKPFHPKFIKELRVIESGPHCANTEIIVKLSDGRELCLDPKENWVQRVVEKFLKRAENSGSGSYTYNYEWHVDVWGQGLLVTVSS
light: QAVLNQPSSVSGSLGQKVTISCSGSSSNIGNNYVSWYQQLPGTAPRTLIYGDTSRASGIPDRFSGSKSGTSATLGITGLQTGDEADYYCASAEDSSSNAVFGSGTTLTVLGQPKAAPSVTLFPPSSEELQANKATLVCLISDFYPGAVTVAWKADSSPVKAGVETTTPSKQSNNKYAASSYLSLTPEQWKSHRSYSCQVTHEGSTVEKTVAPTECS
B2: VH4-34+CDR3-IL8_CDR1-Cow_CDR2-E50S_Q5RQ6E / VL1-51 I29V, N32G, K46R, L47T, D51G, N52D, N53T, K54S, P56A IgG (antibody)
VH: QVQLREWGAGLLKPSETLSLTCTASGFSLSDKAVGWIRQPPGKGLEWIGSINHSGSTNYNPSLKSRVTISVDTSKNQFSLKLSSVTAADTAVYYCTSVHQETKKYQSPRSAKELRCQCIKTYSKPFHPKFIKELRVIESGPHCANTEIIVKLSDGRELCLDPKENWVQRVVEKFLKRAENSGSGSYTYNYEWHVDVWGQGLLVTVSS
light: QSVLTQPPSVSAAPGQKVTISCSGSSSNVGNGYVSWYQQLPGTAPRTLIYGDTSRASGIPDRFSGSKSGTSATLGITGLQTGDEADYYCASAEDSSSNAVFGSGTTLTVLGQPKAAPSVTLFPPSSEELQANKATLVCLISDFYPGAVTVAWKADSSPVKAGVETTTPSKQSNNKYAASSYLSLTPEQWKSHRSYSCQVTHEGSTVEKTVAPTECS
B3: VH4-34+CDR3-IL8_CDR1-Cow_CDR2-Cow_Q5RQ6E / VL1-51 S2A, T5N, P8S, A12G, A13S, P14L, K46R, L47T, D51G, N52D, N53T, K54S, P56A IgG (antibody)
VH: QVQLREWGAGLLKPSETLSLTCTASGFSLSDKAVGWIRQPPGKGLEWLGSIDTGGNTGYNPSLKSRVTISVDTSKNQFSLKLSSVTAADTAVYYCTSVHQETKKYQSPRSAKELRCQCIKTYSKPFHPKFIKELRVIESGPHCANTEIIVKLSDGRELCLDPKENWVQRVVEKFLKRAENSGSGSYTYNYEWHVDVWGQGLLVTVSS
light: QAVLNQPSSVSGSLGQKVTISCSGSSSNIGNNYVSWYQQLPGTAPRTLIYGDTSRASGIPDRFSGSKSGTSATLGITGLQTGDEADYYCASAEDSSSNAVFGSGTTLTVLGQPKAAPSVTLFPPSSEELQANKATLVCLISDFYPGAVTVAWKADSSPVKAGVETTTPSKQSNNKYAASSYLSLTPEQWKSHRSYSCQVTHEGSTVEKTVAPTECS
B4: VH4-34+CDR3-IL8_CDR1-Cow_CDR2-E50S_Q5RQ6E / VL1-51 S2A, T5N, P8S, A12G, A13S, P14L, D51G, N52D, N53T IgG (antibody)
VH: QVQLREWGAGLLKPSETLSLTCTASGFSLSDKAVGWIRQPPGKGLEWIGSINHSGSTNYNPSLKSRVTISVDTSKNQFSLKLSSVTAADTAVYYCTSVHQETKKYQSPRSAKELRCQCIKTYSKPFHPKFIKELRVIESGPHCANTEIIVKLSDGRELCLDPKENWVQRVVEKFLKRAENSGSGSYTYNYEWHVDVWGQGLLVTVSS
light: QAVLNQPSSVSGSLGQKVTISCSGSSSNIGNNYVSWYQQLPGTAPKLLIYGDTKRPSGIPDRFSGSKSGTSATLGITGLQTGDEADYYCASAEDSSSNAVFGSGTTLTVLGQPKAAPSVTLFPPSSEELQANKATLVCLISDFYPGAVTVAWKADSSPVKAGVETTTPSKQSNNKYAASSYLSLTPEQWKSHRSYSCQVTHEGSTVEKTVAPTECS
B5: VH4-34+CDR3-IL8_CDR1-Cow_Q5RQ6E / VL1-51 I29V, N32G, K46R, L47T, D51G, N52D, N53T IgG (antibody)
VH: QVQLREWGAGLLKPSETLSLTCTASGFSLSDKAVGWIRQPPGKGLEWIGEINHSGSTNYNPSLKSRVTISVDTSKNQFSLKLSSVTAADTAVYYCTSVHQETKKYQSPRSAKELRCQCIKTYSKPFHPKFIKELRVIESGPHCANTEIIVKLSDGRELCLDPKENWVQRVVEKFLKRAENSGSGSYTYNYEWHVDVWGQGLLVTVSS
light: QSVLTQPPSVSAAPGQKVTISCSGSSSNVGNGYVSWYQQLPGTAPRTLIYGDTKRPSGIPDRFSGSKSGTSATLGITGLQTGDEADYYCASAEDSSSNAVFGSGTTLTVLGQPKAAPSVTLFPPSSEELQANKATLVCLISDFYPGAVTVAWKADSSPVKAGVETTTPSKQSNNKYAASSYLSLTPEQWKSHRSYSCQVTHEGSTVEKTVAPTECS
B6: VH4-34+CDR3-IL8_CDR1-G31DY32K_CDR2-E50S_Q5RQ6E / VL1-51 S2A, T5N, P8S, A12G, A13S, P14L, K46R, L47T, D51G, N52D, N53T, K54S, P56A IgG (antibody)
VH: QVQLREWGAGLLKPSETLSLTCAVYGGSFSDKYWSWIRQPPGKGLEWIGSINHSGSTNYNPSLKSRVTISVDTSKNQFSLKLSSVTAADTAVYYCTSVHQETKKYQSPRSAKELRCQCIKTYSKPFHPKFIKELRVIESGPHCANTEIIVKLSDGRELCLDPKENWVQRVVEKFLKRAENSGSGSYTYNYEWHVDVWGQGLLVTVSS
light: QAVLNQPSSVSGSLGQKVTISCSGSSSNIGNNYVSWYQQLPGTAPRTLIYGDTSRASGIPDRFSGSKSGTSATLGITGLQTGDEADYYCASAEDSSSNAVFGSGTTLTVLGQPKAAPSVTLFPPSSEELQANKATLVCLISDFYPGAVTVAWKADSSPVKAGVETTTPSKQSNNKYAASSYLSLTPEQWKSHRSYSCQVTHEGSTVEKTVAPTECS
B7: VH4-34+CDR3-IL8_CDR1-Cow_Q5RQ6E / VL1-51 I29V, N32G, K46R, L47T, D51G, N52D, N53T, K54S, P56A IgG (antibody)
VH: QVQLREWGAGLLKPSETLSLTCTASGFSLSDKAVGWIRQPPGKGLEWIGEINHSGSTNYNPSLKSRVTISVDTSKNQFSLKLSSVTAADTAVYYCTSVHQETKKYQSPRSAKELRCQCIKTYSKPFHPKFIKELRVIESGPHCANTEIIVKLSDGRELCLDPKENWVQRVVEKFLKRAENSGSGSYTYNYEWHVDVWGQGLLVTVSS
light: QSVLTQPPSVSAAPGQKVTISCSGSSSNVGNGYVSWYQQLPGTAPRTLIYGDTSRASGIPDRFSGSKSGTSATLGITGLQTGDEADYYCASAEDSSSNAVFGSGTTLTVLGQPKAAPSVTLFPPSSEELQANKATLVCLISDFYPGAVTVAWKADSSPVKAGVETTTPSKQSNNKYAASSYLSLTPEQWKSHRSYSCQVTHEGSTVEKTVAPTECS
B8: VH4-34+CDR3-IL8_CDR1-Cow_Q5RQ6E / VL1-51 S2A, T5N, P8S, A12G, A13S, P14L, K46R, L47T, D51G, N52D, N53T, K54S, P56A IgG (antibody)
VH: QVQLREWGAGLLKPSETLSLTCTASGFSLSDKAVGWIRQPPGKGLEWIGEINHSGSTNYNPSLKSRVTISVDTSKNQFSLKLSSVTAADTAVYYCTSVHQETKKYQSPRSAKELRCQCIKTYSKPFHPKFIKELRVIESGPHCANTEIIVKLSDGRELCLDPKENWVQRVVEKFLKRAENSGSGSYTYNYEWHVDVWGQGLLVTVSS
light: QAVLNQPSSVSGSLGQKVTISCSGSSSNIGNNYVSWYQQLPGTAPRTLIYGDTSRASGIPDRFSGSKSGTSATLGITGLQTGDEADYYCASAEDSSSNAVFGSGTTLTVLGQPKAAPSVTLFPPSSEELQANKATLVCLISDFYPGAVTVAWKADSSPVKAGVETTTPSKQSNNKYAASSYLSLTPEQWKSHRSYSCQVTHEGSTVEKTVAPTECS
B9: VH4-34+CDR3-IL8_CDR1-Cow_CDR2-Cow_Q5RQ6E / VL1-51 S2A, T5N, P8S, A12G, A13S, P14L, D51G, N52D, N53T IgG (antibody)
VH: QVQLREWGAGLLKPSETLSLTCTASGFSLSDKAVGWIRQPPGKGLEWLGSIDTGGNTGYNPSLKSRVTISVDTSKNQFSLKLSSVTAADTAVYYCTSVHQETKKYQSPRSAKELRCQCIKTYSKPFHPKFIKELRVIESGPHCANTEIIVKLSDGRELCLDPKENWVQRVVEKFLKRAENSGSGSYTYNYEWHVDVWGQGLLVTVSS
light: QAVLNQPSSVSGSLGQKVTISCSGSSSNIGNNYVSWYQQLPGTAPKLLIYGDTKRPSGIPDRFSGSKSGTSATLGITGLQTGDEADYYCASAEDSSSNAVFGSGTTLTVLGQPKAAPSVTLFPPSSEELQANKATLVCLISDFYPGAVTVAWKADSSPVKAGVETTTPSKQSNNKYAASSYLSLTPEQWKSHRSYSCQVTHEGSTVEKTVAPTECS
B10: VH4-34+CDR3-IL8_CDR1-Cow_Q5RQ6E / VL1-51 S2A, T5N, P8S, A12G, A13S, P14L, K46R, L47T, D51G, N52D, N53T IgG (antibody)
VH: QVQLREWGAGLLKPSETLSLTCTASGFSLSDKAVGWIRQPPGKGLEWIGEINHSGSTNYNPSLKSRVTISVDTSKNQFSLKLSSVTAADTAVYYCTSVHQETKKYQSPRSAKELRCQCIKTYSKPFHPKFIKELRVIESGPHCANTEIIVKLSDGRELCLDPKENWVQRVVEKFLKRAENSGSGSYTYNYEWHVDVWGQGLLVTVSS
light: QAVLNQPSSVSGSLGQKVTISCSGSSSNIGNNYVSWYQQLPGTAPRTLIYGDTKRPSGIPDRFSGSKSGTSATLGITGLQTGDEADYYCASAEDSSSNAVFGSGTTLTVLGQPKAAPSVTLFPPSSEELQANKATLVCLISDFYPGAVTVAWKADSSPVKAGVETTTPSKQSNNKYAASSYLSLTPEQWKSHRSYSCQVTHEGSTVEKTVAPTECS
notes: also called BID 43; VH4-34 MutF IL-8 5R6E CD1cow
B11: VH4-34+CDR3-IL8_CDR1-G31DY32K_CDR2-E50S_Q5RQ6E / VL1-51 S2A, T5N, P8S, A12G, A13S, P14L, D51G, N52D, N53T IgG (antibody)
VH: QVQLREWGAGLLKPSETLSLTCAVYGGSFSDKYWSWIRQPPGKGLEWIGSINHSGSTNYNPSLKSRVTISVDTSKNQFSLKLSSVTAADTAVYYCTSVHQETKKYQSPRSAKELRCQCIKTYSKPFHPKFIKELRVIESGPHCANTEIIVKLSDGRELCLDPKENWVQRVVEKFLKRAENSGSGSYTYNYEWHVDVWGQGLLVTVSS
light: QAVLNQPSSVSGSLGQKVTISCSGSSSNIGNNYVSWYQQLPGTAPKLLIYGDTKRPSGIPDRFSGSKSGTSATLGITGLQTGDEADYYCASAEDSSSNAVFGSGTTLTVLGQPKAAPSVTLFPPSSEELQANKATLVCLISDFYPGAVTVAWKADSSPVKAGVETTTPSKQSNNKYAASSYLSLTPEQWKSHRSYSCQVTHEGSTVEKTVAPTECS
B12: VH4-34+CDR3-IL8_CDR1-Cow_CDR2-E50S_Q5RQ6E / VL1-51 I29V, N32G, K46R, L47T, D51G, N52D, N53T IgG (antibody)
VH: QVQLREWGAGLLKPSETLSLTCTASGFSLSDKAVGWIRQPPGKGLEWIGSINHSGSTNYNPSLKSRVTISVDTSKNQFSLKLSSVTAADTAVYYCTSVHQETKKYQSPRSAKELRCQCIKTYSKPFHPKFIKELRVIESGPHCANTEIIVKLSDGRELCLDPKENWVQRVVEKFLKRAENSGSGSYTYNYEWHVDVWGQGLLVTVSS
light: QSVLTQPPSVSAAPGQKVTISCSGSSSNVGNGYVSWYQQLPGTAPRTLIYGDTKRPSGIPDRFSGSKSGTSATLGITGLQTGDEADYYCASAEDSSSNAVFGSGTTLTVLGQPKAAPSVTLFPPSSEELQANKATLVCLISDFYPGAVTVAWKADSSPVKAGVETTTPSKQSNNKYAASSYLSLTPEQWKSHRSYSCQVTHEGSTVEKTVAPTECS

Biological target: T1, CXCR1
Assay: flow cytometry, supernatant at 5 nM IgG

Binder	Specific Binding (CXCR1-Cell median AFU / Parental Cell median AFU)
B1	2
B2	2
B3	2
B4	2
B5	1
B6	3
B7	2
B8	3
B9	4
B10	10
B11	1
B12	1
